{"source": "paper PMC10837151", "about": "“Asymmetric nucleosome PARylation at DNA breaks mediates directional nucleosome sliding by ALC1” (Nature Communications, 2024)", "molecular_target": "T1, histone H4 (Xenopus laevis) (Xenopus laevis, UniProt P62799 1-103)", "T1 construct": "histone H4, Xenopus laevis, recombinant; In the cryo-EM structure H4 stood within the nucleosome m2; source: bought: Histone Source Protein Expression and Purification Facility, Colorado State University (purified recombinant)", "experiment": "cryo-EM structure; modified nucleosomes at 1 µM, ALC1 at 6 µM, ADP-BeF3 at 1 mM, incubated 60 minutes on ice before vitrification", "conditions": "both partners purified"}
{"binder": "ALC1 (Amplified in Liver Cancer 1), wild-type construct (16-879) (enzyme, human ALC1/CHD1L, residues 16-879; The cryo-EM methods call the protein ALC1^fl, while the only construct described is 16-879; also called CHD1L; ALC1/CHD1L; source: E. coli Rosetta 2 (DE3), purified (HisTrap, Q/SP ion exchange, Superdex 200)) FLLRLHTEGRAEAARVQEQDLRQWGLTGIHLRSYQLEGVNWLAQRFHCQNGCILGDEMGLGKTCQTIALFIYLAGRLNDEGPFLILCPLSVLSNWKEEMQRFAPGLSCVTYAGDKEERACLQQDLKQESRFHVLLTTYEICLKDASFLKSFPWSVLVVDEAHRLKNQSSLLHKTLSEFSVVFSLLLTGTPIQNSLQELYSLLSFVEPDLFSKEEVGDFIQRYQDIEKESESASELHKLLQPFLLRRVKAEVATELPKKTEVVIYHGMSALQKKYYKAILMKDLDAFENETAKKVKLQNILSQLRKCVDHPYLFDGVEPEPFEVGDHLTEASGKLHLLDKLLAFLYSGGHRVLLFSQMTQMLDILQDYMDYRGYSYERVDGSVRGEERHLAIKNFGQQPIFVFLLSTRAGGVGMNLTAADTVIFVDSDFNPQNDLQAAARAHRIGQNKSVKVIRLIGRDTVEEIVYRKAASKLQLTNMIIEGGHFTLGAQKPAADADLQLSEILKFGLDKLLASEGSTMDEIDLESILGETKDGQWVSDALPAAEGGSRDQEEGKNHMYLFEGKDYSKEPSKEDRKSFEQLVNLQKTLLEKASQEGRSLRNKGSVLIPGLVEGSTKRKRVLSPEELEDRQKKRQEAAAKRRRLIEEKKRQKEEAEHKKKMAWWESNNYQSFCLPSEESEPEDLENGEESSAELDYQDPDATSLKYVSGDVTHPQAGAEDALIVHCVDDSGHWGRGGLFTALEKRSAEPRKIYELAGKMKDLSLGGVLLFPVDDKESRNKGQDLLALIVAQHRDRSNVLSGIKMAALEEGLKKIFLAAKKKKASVHLPRIGHATKGFNWYGTERLIRKHLAARGIPTYIYYFPRSK", "values": [{"measurement": "binding result", "result": "binds"}]}
